From PMC314469, “Protein Interaction Networks by Proteome Peptide Scanning” (PLoS Biology, 2004) come the findings set out here.

First the molecules themselves.
T1: Boi1 SH3 (BOI1_YEAST), P38041
T1 chain: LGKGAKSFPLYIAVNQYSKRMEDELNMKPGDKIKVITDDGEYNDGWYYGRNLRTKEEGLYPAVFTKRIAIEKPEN

T2: Myo5 SH3 (MYO5_YEAST), Q04439
T2 chain: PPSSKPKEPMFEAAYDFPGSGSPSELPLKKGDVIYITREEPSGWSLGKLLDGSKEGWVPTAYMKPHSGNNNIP

T3: Rvs167 SH3 (RV167_YEAST), P39743
T3 chain: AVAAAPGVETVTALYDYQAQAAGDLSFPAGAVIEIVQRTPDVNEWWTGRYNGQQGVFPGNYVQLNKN

T4: Yhr016c SH3 (YSC84_YEAST), P32793
T4 chain: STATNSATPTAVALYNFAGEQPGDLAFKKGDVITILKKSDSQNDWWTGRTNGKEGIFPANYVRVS

T5: Yfr024 SH3 (LSB3_YEAST), P43603
T5 chain: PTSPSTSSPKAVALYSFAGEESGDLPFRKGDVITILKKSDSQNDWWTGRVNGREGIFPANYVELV

T6: Boi2 SH3 (BOI2_YEAST), P39969
T6 chain: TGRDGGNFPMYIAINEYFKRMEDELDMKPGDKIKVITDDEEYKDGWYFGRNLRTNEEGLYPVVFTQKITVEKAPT

The target of the first experiment is T1, Boi1 SH3 (BOI1_YEAST), P38041. Description: SPOT array.
On to RERPLEPPRKPMAS [YDR448W 142-155], for which the normalised SPOT signal, Boehringer light units (BLU); mean over the file's lines of this peptide came out at 256.

A further experiment has as its target T2, Myo5 SH3 (MYO5_YEAST), Q04439. Briefly: SPOT array.
As to MLNEHGVPVVPSRE [YER014W 436-449], the normalised SPOT signal, Boehringer light units (BLU); mean over the file's lines of this peptide stood at 199.
Turning to MASFLPVPEKPNLI [YNL206C 125-138], the normalised SPOT signal, Boehringer light units (BLU); mean over the file's lines of this peptide is 161.
MAKSFADPRVPQPM [YPR112C 91-104]: the normalised SPOT signal, Boehringer light units (BLU); mean over the file's lines of this peptide is 172.
In turn, LPTALLSPLRPSLS [YCL051W 199-212] showed a normalised SPOT signal, Boehringer light units (BLU); mean over the file's lines of this peptide of 115.
LLYLMTYPQQPMVK [YOR207C 724-737] gave a normalised SPOT signal, Boehringer light units (BLU); mean over the file's lines of this peptide of 162.
The same measure, in the same setting: as for LWILYMSPDVPSAS [YPL058C 1310-1323], the figure is 253.
Take NFPSLIDPHVPTYG [YDL223C 906-919]: the normalised SPOT signal, Boehringer light units (BLU); mean over the file's lines of this peptide is 97.4.
Take NEAPMLSPQRPYST [YLR006C 162-175]: the normalised SPOT signal, Boehringer light units (BLU); mean over the file's lines of this peptide came to 111.
On the same count and under the same terms, as for MEEPFIWPEEPRPD [YDR405W 164-177], the figure is 79.7; as for LPFMYLLPRFPSHI [YGR065C 182-195], 455.
The molecule MFELLSHPKVPVGM [YHR197W 602-615] registered a normalised SPOT signal, Boehringer light units (BLU); mean over the file's lines of this peptide of 268.
NEIELLRPRSPVQK [YCL055W 320-333] came in with a normalised SPOT signal, Boehringer light units (BLU); mean over the file's lines of this peptide of 126.
On to NFLKHYLPSSPGDI [YDL033C 241-254], for which the normalised SPOT signal, Boehringer light units (BLU); mean over the file's lines of this peptide was determined as 172.
Same read-out and setting: as for LPAPPPPPRRGPA [YOR181W 341-353], the figure is 43400; as for NALKLIHPFMPFIS [YGR094W 895-908], 170.
On the same count and under the same terms, with MLKALFTPLIPVSF [YML068W 248-261] the figure was 257.
MFNLLQKPEQPHQN [YLR291C 121-134]: the normalised SPOT signal, Boehringer light units (BLU); mean over the file's lines of this peptide is 204.
Molecule MFTYFQEPPFPDLL [YPL063W 167-180] returned a normalised SPOT signal, Boehringer light units (BLU); mean over the file's lines of this peptide of 239.
Consider NEDTFLPPPPPPPS [YHR165C 44-57], for which the normalised SPOT signal, Boehringer light units (BLU); mean over the file's lines of this peptide amounted to 20400.
Consider LPAVFSAPIRPDIV [YBR031W 22-35], for which the normalised SPOT signal, Boehringer light units (BLU); mean over the file's lines of this peptide came to 202.
In turn, NALGLDPPPSPEDP [YLR203C 42-55] yielded a normalised SPOT signal, Boehringer light units (BLU); mean over the file's lines of this peptide of 241.
For LWKPLVYPTSPSEH [YFR019W 1841-1854], the normalised SPOT signal, Boehringer light units (BLU); mean over the file's lines of this peptide worked out at 185.
Consider LPQQHLSPLIPIAI [YGL035C 132-145], for which the normalised SPOT signal, Boehringer light units (BLU); mean over the file's lines of this peptide was 45.3.
MASGLLPPIQPGFD [YJR106W 230-243] showed a normalised SPOT signal, Boehringer light units (BLU); mean over the file's lines of this peptide of 223.
The molecule LLLPLLLPPLPSVK [YKL147C 80-93] registered a normalised SPOT signal, Boehringer light units (BLU); mean over the file's lines of this peptide of 6470.
Molecule MLFSWPYPEAPIEG [YPL087W 1-14] gave a normalised SPOT signal, Boehringer light units (BLU); mean over the file's lines of this peptide of 126.
On to NEGDLYPPEQPGVD [YJL115W 157-170], for which the normalised SPOT signal, Boehringer light units (BLU); mean over the file's lines of this peptide turned out to be 80.1.
For LLISHLFPTNPEFS [YER155C 650-663], the normalised SPOT signal, Boehringer light units (BLU); mean over the file's lines of this peptide came to 414.
The molecule LLAEHNGPKLPHIP [YKR021W 416-429] came in with a normalised SPOT signal, Boehringer light units (BLU); mean over the file's lines of this peptide of 198.
The same measure, in the same setting: with LLQSLRLPTTPTER [YCL040W 391-404] the figure was 125; with LLAKLPLPRDPRVA [YPR183W 188-201], 344; with NETKLKFPTLPEVP [YHR117W 470-483], 255.
Take NASAMPAPYMPYYY [YIR010W 139-152]: the normalised SPOT signal, Boehringer light units (BLU); mean over the file's lines of this peptide stood at 226.
Molecule RERPLEPPRKPMAS [YDR448W 142-155] had a normalised SPOT signal, Boehringer light units (BLU); mean over the file's lines of this peptide of 967.
LPTGYYEPMKPSSL [YLL016W 406-419] gave a normalised SPOT signal, Boehringer light units (BLU); mean over the file's lines of this peptide of 165.
For NEKLHETPHLPSPV [YNL204C 272-285], the normalised SPOT signal, Boehringer light units (BLU); mean over the file's lines of this peptide was found to be 109.
As to NAIAMALPNEPYPA [YLR342W 137-150], the normalised SPOT signal, Boehringer light units (BLU); mean over the file's lines of this peptide worked out at 96.8.
Turning to MANILYYPQKPLGT [YOR151C 792-805], the normalised SPOT signal, Boehringer light units (BLU); mean over the file's lines of this peptide worked out at 152.
Same read-out and setting: with LLKGYIPPYKPIVK [YMR104C 608-621] the figure was 169; with LELLLSLPTGPESK [YBR172C 710-723], 143.
NEFLHFDPHIPQPA [YNL223W 328-341]: the normalised SPOT signal, Boehringer light units (BLU); mean over the file's lines of this peptide was determined as 156.
NEHGMNAPSVPEFI [YOR290C 25-38] came in with a normalised SPOT signal, Boehringer light units (BLU); mean over the file's lines of this peptide of 344.
Still for that read-out and setting: with LFKRLPVPAPPMDS [YNL238W 106-119] the figure was 145.
Consider LPEELMRPKVPELL [YPL012W 957-970], for which the normalised SPOT signal, Boehringer light units (BLU); mean over the file's lines of this peptide worked out at 145.
Still for that read-out and setting: with NAIEMALPNDPYPA [YGR032W 156-169] the figure was 87.2; with NASLLRDPSAPYAH [YER064C 198-211], 134.

A further experiment addresses T3, Rvs167 SH3 (RV167_YEAST), P39743. Briefly: SPOT array.
Turning to RERPLEPPRKPMAS [YDR448W 142-155], the normalised SPOT signal, Boehringer light units (BLU); mean over the file's lines of this peptide came to 599.

In a further experiment the target is T4, Yhr016c SH3 (YSC84_YEAST), P32793. Description: SPOT array.
Consider RERPLEPPRKPMAS [YDR448W 142-155], for which the normalised SPOT signal, Boehringer light units (BLU); mean over the file's lines of this peptide was found to be 1830.

The target in the next experiment is T5, Yfr024 SH3 (LSB3_YEAST), P43603. Briefly: SPOT array.
In the case of RERPLEPPRKPMAS [YDR448W 142-155], the normalised SPOT signal, Boehringer light units (BLU); mean over the file's lines of this peptide worked out at 13500.

A further experiment addresses T6, Boi2 SH3 (BOI2_YEAST), P39969. Briefly: SPOT array.
The molecule RERPLEPPRKPMAS [YDR448W 142-155] came in with a normalised SPOT signal, Boehringer light units (BLU); mean over the file's lines of this peptide of 41.1.
